US20260144882A1 (BIO THERA SOLUTIONS, published 2026)

T1: human Nectin-4 extracellular antigen hNectin-4-His (human, UniProt Q96NY8 32-349)
T1 construct: C-terminal 8xHis tag included
T1 sequence: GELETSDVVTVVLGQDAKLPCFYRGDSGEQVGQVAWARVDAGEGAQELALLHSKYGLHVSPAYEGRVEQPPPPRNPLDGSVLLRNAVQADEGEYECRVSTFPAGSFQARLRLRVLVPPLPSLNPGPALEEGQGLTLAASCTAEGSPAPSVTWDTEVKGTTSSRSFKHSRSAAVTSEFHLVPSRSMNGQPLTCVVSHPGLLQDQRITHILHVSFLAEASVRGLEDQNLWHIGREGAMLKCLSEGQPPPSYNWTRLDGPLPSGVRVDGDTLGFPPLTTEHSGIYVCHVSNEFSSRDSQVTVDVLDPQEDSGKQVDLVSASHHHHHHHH

B1: 1G8-2C6 scFv (scFv, V domains shown)
VH: EVQLVESGGGLVQPGGSLRLSCAASGDNFSSYAMSWVRQAPGKGLEWVSRIYGSDSTPDYADSVKGRFTISRDNSKNTLYLQMNSLRAEDTAVYYCARQTEDRSYGYDLDYWGQGTLVTVSS
VL: DIQMTQSPSSLSASVGDRVTITCRASQGISSYLAWYQQKPGKAPKLLIYAASSLQSGVPSRFSGSGSGTDFTLTISSLQPEDFATYYCQQHYTTPPTFGQGTKVEIKR
notes: phage clone supernatant
B2: 1G8-2E7 scFv (scFv, V domains shown)
VH: EVQLVESGGGLVQPGGSLRLSCAASGYTFGNYAMSWVRQAPGKGLEWVSRISPSTWNIDYADSVKGRFTISRDNSKNTLYLQMNSLRAEDTAVYYCARQTEDRSYGYDLDYWGQGTLVTVSS
VL: DIQMTQSPSSLSASVGDRVTITCRASQGISSYLAWYQQKPGKAPKLLIYAASSLQSGVPSRFSGSGSGTDFTLTISSLQPEDFATYYCQQHYTTPPTFGQGTKVEIKR
notes: phage clone supernatant
B3: 1G8-2F9 scFv (scFv, V domains shown)
VH: EVQLVESGGGLVQPGGSLRLSCAASGYSFSNYAMSWVRQAPGKGLEWVSRISAWGSTNNYADSVKGRFTISRDNSKNTLYLQMNSLRAEDTAVYYCARQTEDRSYGYDLDYWGQGTLVTVSS
VL: DIQMTQSPSSLSASVGDRVTITCRASQGISSYLAWYQQKPGKAPKLLIYAASSLQSGVPSRFSGSGSGTDFTLTISSLQPEDFATYYCQQHYTTPPTFGQGTKVEIKR
notes: phage clone supernatant
B4: 1G8-2G4 scFv (scFv, V domains shown)
VH: EVQLVESGGGLVQPGGSLRLSCAASGFTFGGYSMSWVRQAPGKGLEWVSRISTDGAYTNYADSVKGRFTISRDNSKNTLYLQMNSLRAEDTAVYYCARQTEDRSYGYDLDYWGQGTLVTVSS
VL: DIQMTQSPSSLSASVGDRVTITCRASQGISSYLAWYQQKPGKAPKLLIYAASSLQSGVPSRFSGSGSGTDFTLTISSLQPEDFATYYCQQHYTTPPTFGQGTKVEIKR
notes: phage clone supernatant
B5: 1G8-2H10 scFv (scFv, V domains shown)
VH: EVQLVESGGGLVQPGGSLRLSCAASGYNFTNSAMSWVRQAPGKGLEWVSSIYYHSGVPRYADSVKGRFTISRDNSKNTLYLQMNSLRAEDTAVYYCARQTEDRSYGYDLDYWGQGTLVTVSS
VL: DIQMTQSPSSLSASVGDRVTITCRASQGISSYLAWYQQKPGKAPKLLIYAASSLQSGVPSRFSGSGSGTDFTLTISSLQPEDFATYYCQQHYTTPPTFGQGTKVEIKR
notes: phage clone supernatant
B6: 1G8-2G7 scFv (scFv, V domains shown)
VH: EVQLVESGGGLVQPGGSLRLSCAASGGTFYTYAMSWVRQAPGKGLEWVSRIYSTKGTPDYADSVKGRFTISRDNSKNTLYLQMNSLRAEDTAVYYCARQTEDRSYGYDLDYWGQGTLVTVSS
VL: DIQMTQSPSSLSASVGDRVTITCRASQGISSYLAWYQQKPGKAPKLLIYAASSLQSGVPSRFSGSGSGTDFTLTISSLQPEDFATYYCQQHYTTPPTFGQGTKVEIKR
notes: phage clone supernatant
B7: 1G8-2H8 scFv (scFv, V domains shown)
VH: EVQLVESGGGLVQPGGSLRLSCAASGDIFGSYAMSWVRQAPGKGLEWVSAISGSGGSTYYADSVKGRFTISRDNSKNTLYLQMNSLRAEDTAVYYCARQTEDRSYGYDLDYWGQGTLVTVSS
VL: DIQMTQSPSSLSASVGDRVTITCRASQGISSYLAWYQQKPGKAPKLLIYAASSLQSGVPSRFSGSGSGTDFTLTISSLQPEDFATYYCQQHYTTPPTFGQGTKVEIKR
notes: phage clone supernatant
B8: 1G8-2D9 scFv (scFv, V domains shown)
VH: EVQLVESGGGLVQPGGSLRLSCAASGDIFDGYSMSWVRQAPGKGLEWVSRIDTGGSVKNYADSVKGRFTISRDNSKNTLYLQMNSLRAEDTAVYYCARQTEDRSYGYDLDYWGQGTLVTVSS
VL: DIQMTQSPSSLSASVGDRVTITCRASQGISSYLAWYQQKPGKAPKLLIYAASSLQSGVPSRFSGSGSGTDFTLTISSLQPEDFATYYCQQHYTTPPTFGQGTKVEIKR
notes: phage clone supernatant
B9: 1G8-2G8 scFv (scFv, V domains shown)
VH: EVQLVESGGGLVQPGGSLRLSCAASGFNFTNYAMSWVRQAPGKGLEWVSRISTYGDTTHYADSVKGRFTISRDNSKNTLYLQMNSLRAEDTAVYYCARQTEDRSYGYDLDYWGQGTLVTVSS
VL: DIQMTQSPSSLSASVGDRVTITCRASQGISSYLAWYQQKPGKAPKLLIYAASSLQSGVPSRFSGSGSGTDFTLTISSLQPEDFATYYCQQHYTTPPTFGQGTKVEIKR
notes: phage clone supernatant
B10: 1G8-2F11 scFv (scFv, V domains shown)
VH: EVQLVESGGGLVQPGGSLRLSCAASGYTFGSNAMSWVRQAPGKGLEWVSRISPDSSGISYADSVKGRFTISRDNSKNTLYLQMNSLRAEDTAVYYCARQTEDRSYGYDLDYWGQGTLVTVSS
VL: DIQMTQSPSSLSASVGDRVTITCRASQGISSYLAWYQQKPGKAPKLLIYAASSLQSGVPSRFSGSGSGTDFTLTISSLQPEDFATYYCQQHYTTPPTFGQGTKVEIKR
notes: phage clone supernatant
B11: 1G8-2F2 scFv (scFv, V domains shown)
VH: EVQLVESGGGLVQPGGSLRLSCAASGDIFGSYAMSWVRQAPGKGLEWVSRISSHGASRDYADSVKGRFTISRDNSKNTLYLQMNSLRAEDTAVYYCARQTEDRSYGYDLDYWGQGTLVTVSS
VL: DIQMTQSPSSLSASVGDRVTITCRASQGISSYLAWYQQKPGKAPKLLIYAASSLQSGVPSRFSGSGSGTDFTLTISSLQPEDFATYYCQQHYTTPPTFGQGTKVEIKR
notes: phage clone supernatant
B12: 1G8-2H3 scFv (scFv, V domains shown)
VH: EVQLVESGGGLVQPGGSLRLSCAASGYSFGGYAMSWVRQAPGKGLEWVSRISGIKAYNDYADSVKGRFTISRDNSKNTLYLQMNSLRAEDTAVYYCARQTEDRSYGYDLDYWGQGTLVTVSS
VL: DIQMTQSPSSLSASVGDRVTITCRASQGISSYLAWYQQKPGKAPKLLIYAASSLQSGVPSRFSGSGSGTDFTLTISSLQPEDFATYYCQQHYTTPPTFGQGTKVEIKR
notes: phage clone supernatant
B13: 1G8-2G3 scFv (scFv, V domains shown)
VH: EVQLVESGGGLVQPGGSLRLSCAASGFIFGGNAMSWVRQAPGKGLEWVSRISSDKGTTNYADSVKGRFTISRDNSKNTLYLQMNSLRAEDTAVYYCARQTEDRSYGYDLDYWGQGTLVTVSS
VL: DIQMTQSPSSLSASVGDRVTITCRASQGISSYLAWYQQKPGKAPKLLIYAASSLQSGVPSRFSGSGSGTDFTLTISSLQPEDFATYYCQQHYTTPPTFGQGTKVEIKR
notes: phage clone supernatant
B14: 1G8-2D6 scFv (scFv, V domains shown)
VH: EVQLVESGGGLVQPGGSLRLSCAASGFSFDGYAMSWVRQAPGKGLEWVSRISAHSWNKDYADSVKGRFTISRDNSKNTLYLQMNSLRAEDTAVYYCARQTEDRSYGYDLDYWGQGTLVTVSS
VL: DIQMTQSPSSLSASVGDRVTITCRASQGISSYLAWYQQKPGKAPKLLIYAASSLQSGVPSRFSGSGSGTDFTLTISSLQPEDFATYYCQQHYTTPPTFGQGTKVEIKR
notes: phage clone supernatant
B15: 1G8-2H1 scFv (scFv, V domains shown)
VH: EVQLVESGGGLVQPGGSLRLSCAASGYSFYSYAMSWVRQAPGKGLEWVSRISQGGGVTHYADSVKGRFTISRDNSKNTLYLQMNSLRAEDTAVYYCARQTEDRSYGYDLDYWGQGTLVTVSS
VL: DIQMTQSPSSLSASVGDRVTITCRASQGISSYLAWYQQKPGKAPKLLIYAASSLQSGVPSRFSGSGSGTDFTLTISSLQPEDFATYYCQQHYTTPPTFGQGTKVEIKR
notes: phage clone supernatant
B16: 1G8-2D11 scFv (scFv, V domains shown)
VH: EVQLVESGGGLVQPGGSLRLSCAASGYSFSGNAMSWVRQAPGKGLEWVSRIDGWGSYTDYADSVKGRFTISRDNSKNTLYLQMNSLRAEDTAVYYCARQTEDRSYGYDLDYWGQGTLVTVSS
VL: DIQMTQSPSSLSASVGDRVTITCRASQGISSYLAWYQQKPGKAPKLLIYAASSLQSGVPSRFSGSGSGTDFTLTISSLQPEDFATYYCQQHYTTPPTFGQGTKVEIKR
notes: phage clone supernatant
B17: 1G8-2D7 scFv (scFv, V domains shown)
VH: EVQLVESGGGLVQPGGSLRLSCAASGDSFTSYAMSWVRQAPGKGLEWVSRISADSASPSYADSVKGRFTISRDNSKNTLYLQMNSLRAEDTAVYYCARQTEDRSYGYDLDYWGQGTLVTVSS
VL: DIQMTQSPSSLSASVGDRVTITCRASQGISSYLAWYQQKPGKAPKLLIYAASSLQSGVPSRFSGSGSGTDFTLTISSLQPEDFATYYCQQHYTTPPTFGQGTKVEIKR
notes: phage clone supernatant
B18: 1G8-2G9 scFv (scFv, V domains shown)
VH: EVQLVESGGGLVQPGGSLRLSCAASGYIFTNYAMSWVRQAPGKGLEWVSRISQSGGTNDYADSVKGRFTISRDNSKNTLYLQMNSLRAEDTAVYYCARQTEDRSYGYDLDYWGQGTLVTVSS
VL: DIQMTQSPSSLSASVGDRVTITCRASQGISSYLAWYQQKPGKAPKLLIYAASSLQSGVPSRFSGSGSGTDFTLTISSLQPEDFATYYCQQHYTTPPTFGQGTKVEIKR
notes: phage clone supernatant
B19: 1G8-2C7 scFv (scFv, V domains shown)
VH: EVQLVESGGGLVQPGGSLRLSCAASGYSFTNFAMSWVRQAPGKGLEWVSRISQDGGNKNYADSVKGRFTISRDNSKNTLYLQMNSLRAEDTAVYYCARQTEDRSYGYDLDYWGQGTLVTVSS
VL: DIQMTQSPSSLSASVGDRVTITCRASQGISSYLAWYQQKPGKAPKLLIYAASSLQSGVPSRFSGSGSGTDFTLTISSLQPEDFATYYCQQHYTTPPTFGQGTKVEIKR
notes: phage clone supernatant
B20: 1G8-2H4 scFv (scFv, V domains shown)
VH: EVQLVESGGGLVQPGGSLRLSCAASGDSFTGYAMSWVRQAPGKGLEWVSAISGSGGSTYYADSVKGRFTISRDNSKNTLYLQMNSLRAEDTAVYYCARQTEDRSYGYDLDYWGQGTLVTVSS
VL: DIQMTQSPSSLSASVGDRVTITCRASQGISSYLAWYQQKPGKAPKLLIYAASSLQSGVPSRFSGSGSGTDFTLTISSLQPEDFATYYCQQHYTTPPTFGQGTKVEIKR
notes: phage clone supernatant
B21: 1G8-2H9 scFv (scFv, V domains shown)
VH: EVQLVESGGGLVQPGGSLRLSCAASGFNFGNYAMSWVRQAPGKGLEWVSAIYSYFDEPRYADSVKGRFTISRDNSKNTLYLQMNSLRAEDTAVYYCARQTEDRSYGYDLDYWGQGTLVTVSS
VL: DIQMTQSPSSLSASVGDRVTITCRASQGISSYLAWYQQKPGKAPKLLIYAASSLQSGVPSRFSGSGSGTDFTLTISSLQPEDFATYYCQQHYTTPPTFGQGTKVEIKR
notes: phage clone supernatant

Target: T1, human Nectin-4 extracellular antigen …
Assay: ELISA, phage scFv supernatant 1:50

Binder | OD value [OD]
B1 | 1.58
B2 | 1.56
B3 | 1.56
B4 | 1.58
B5 | 1.53
B6 | 1.49
B7 | 1.57
B8 | 1.54
B9 | 1.58
B10 | 1.57
B11 | 1.6
B12 | 1.53
B13 | 1.58
B14 | 1.63
B15 | 1.58
B16 | 1.53
B17 | 1.54
B18 | 1.54
B19 | 1.58
B20 | 1.58
B21 | 1.46
